According to paper PMC11390681:

System: F4 (K88) fimbriae on intact ETEC strain SP11 cells (Escherichia coli (ETEC-F4+, strain SP11))
Assay: whole-cell binding with qPCR quantification of eluted aptamer
Conditions: 138 mM NaCl, 20 mM Tris-HCl pH 7.4, 2.7 mM KCl, 1 mM CaCl2, 0.5 mM MgCl2, 0.1 mg/mL salmon sperm DNA, 30 min at 37 C, 500 rpm, washes with 0.05% Tween 20

“CGTACGGTCGACGCTAGCGGAGACCGTACCATCTGTTCGTGGAAGCGCTTTGCTCGTCCATTAGCCTTGTGCTCGTGCCACGTGGAGCTCGGATCC [Apt37]” showed a Kd of 50.8 nM.
Sequence “CGTACGGTCGACGCTAGCACACTCTTTTGCTCGTGTTTTTGCCTGTTACATAAAATGAATCAGTGGATGTTTCCTTCTCACGTGGAGCTCGGATCC [Apt31]” has a Kd (intact SP11 cells, about 10^8 CFU/mL, 1 mM CaCl2, 0.5 mM MgCl2) of 81.8 nM.
